{
  "source": "patent US20190359687A1",
  "key": {"[1]": {"target": "purified human glycophorin A protein (Sigma, cat # G5017) (human) (UniProt P02724)", "assay": "ELISA, native hGPA"}, "[2]": {"target": "T1, GP5-10 alanine scanning peptide (human)", "T1 sequence (peptide, N-terminal biotin)": "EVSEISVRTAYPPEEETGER", "assay": "alanine scanning peptide ELISA"}, "[3]": {"target": "T2, GP5-15 alanine scanning peptide (human)", "T2 sequence (peptide, N-terminal biotin)": "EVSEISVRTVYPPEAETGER", "assay": "alanine scanning peptide ELISA"}, "[4]": {"target": "T3, GP5-12 alanine scanning peptide (human)", "T3 sequence (peptide, N-terminal biotin)": "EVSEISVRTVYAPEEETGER", "assay": "alanine scanning peptide ELISA"}, "[5]": {"target": "recombinant human GPA ectodomain (human) (UniProt P02724)", "assay": "ELISA, rec hGPA ectodomain"}, "[6]": {"target": "human glycophorin A on human red blood cells or red blood cell membranes (human) (UniProt P02724)", "assay": "ELISA, Fab on coated human RBC membranes"}, "[7]": {"target": "human glycophorin A on human red blood cells or red blood cell membranes (human) (UniProt P02724)", "assay": "scFv on intact human RBC, unbound scFv by ELISA; 0 min after 200-fold dilution"}, "[8]": {"target": "human glycophorin A on human red blood cells or red blood cell membranes (human) (UniProt P02724)", "assay": "scFv on intact human RBC, unbound scFv by ELISA; 120 min after 200-fold dilution"}, "[9]": {"target": "human glycophorin A on human red blood cells or red blood cell membranes (human) (UniProt P02724)", "assay": "scFv 7 ug/ml on intact human RBC, unbound scFv by ELISA; pre-dilution"}, "[10]": {"target": "human glycophorin A on human red blood cells or red blood cell membranes (human) (UniProt P02724)", "assay": "scFv on intact human RBC, unbound scFv by ELISA; 20 min after 200-fold dilution"}, "[11]": {"target": "human glycophorin A on human red blood cells or red blood cell membranes (human) (UniProt P02724)", "assay": "scFv on intact human RBC, unbound scFv by ELISA; 5 min after 200-fold dilution"}, "[12]": {"target": "human glycophorin A on human red blood cells or red blood cell membranes (human) (UniProt P02724)", "assay": "scFv on intact human RBC, unbound scFv by ELISA; 60 min after 200-fold dilution"}},
  "data": [
    {"binder": "TPP-5321 (Fab, V domains shown) VH: EVQLVQSGAEVKKPGASVKVSCKASGYTFTTYTIHWVRQAPGQGLEWIGIINPSSDYTRYNPKFKDRVTLTTDKSTSTAYMELRSLRSDDTAVYYCQTGTRDYWGQGTTVTVSS VL: DIQLTQSPSFLSASVGDRVTITCSAASSVSYIYWFQQKPGKAPKLLIYSTSTLPSGVPSRFSGSGSGTEYTLTISSLQPEDFATYYCHQRNSFPFTFGQGTKLEIKR", "values": [
      {"measurement": "binding by ELISA relative to parental", "setting": "[1]", "result": 0.06}
    ]},
    {"binder": "TPP-5906 Fab (Fab, V domains shown) VH: EVQLVQSGAEVKKPGASVKVSCKASGYTFTTYTIHWVRQAPGQGLEWMGYINPSSGYTRYNPKFKGRVTMTRDKSTSTAYMELRSLRSDDTAVYYCQTGTRDYWGQGTTVTVSS VL: DIQLTQSPSFLSASVGDRVTITCRASSSVSYIYWFQQKPGKAPKLLIYATSTLQSGVPSRFSGSGSGTEYTLTISSLQPEDFATYYCHQRNSFPYTFGQGTKLEIKR", "values": [
      {"measurement": "percent reduction of binding", "setting": "[2]", "result": "> 95", "unit": "%"},
      {"measurement": "percent reduction of binding", "setting": "[3]", "result": "> 95", "unit": "%"},
      {"measurement": "percent reduction of binding", "setting": "[4]", "result": "> 95", "unit": "%"}
    ]},
    {"binder": "TPP-5349 (Fab, V domains shown) VH: EVQLVQSGAEVKKPGASVKVSCKASGYTFTTYTIHWVRQAPGQGLEWIGYINPSSDYTRYNPKFKDRVTLTTDKSTSTAYMELRSLRSDDTAVYYCQTGTRDYWGQGTTVTVSS VL: DIQLTQSPSFLSASVGDRVTITCSAASSVSYIYWFQQKPGKAPKLLIYSASTLPSGVPSRFSGSGSGTEYTLTISSLQPEDFATYYCHQRNSFPFTFGQGTKLEIKR", "values": [
      {"measurement": "binding by ELISA relative to parental", "setting": "[5]", "result": 0.09}
    ]},
    {"binder": "TPP-5336 (Fab, V domains shown) VH: EVQLVQSGAEVKKPGASVKVSCKASGYTFTTYTIHWVRQAPGQGLEWIGYINPSSDYTRYNPKFKDRVTLTTDKSTSTAYMELRSLRSDDTAVYYCQRGTRDYWGQGTTVTVSS VL: DIQLTQSPSFLSASVGDRVTITCSAASSVSYIYWFQQKPGKAPKLLIYSTSTLPSGVPSRFSGSGSGTEYTLTISSLQPEDFATYYCHQRNSFPFTFGQGTKLEIKR", "values": [
      {"measurement": "binding by ELISA relative to parental", "setting": "[1]", "result": 0.06}
    ]},
    {"binder": "TPP-5346 (Fab, V domains shown) VH: EVQLVQSGAEVKKPGASVKVSCKASGYTFTTYTIHWVRQAPGQGLEWIGYINPSSDYTRYNPKFKDRVTLTTDKSTSTAYMELRSLRSDDTAVYYCQTGTRDYWGQGTTVTVSS VL: DIQLTQSPSFLSASVGDRVTITCSAASSVSYIAWFQQKPGKAPKLLIYSTSTLPSGVPSRFSGSGSGTEYTLTISSLQPEDFATYYCHQRNSFPFTFGQGTKLEIKR", "values": [
      {"measurement": "binding by ELISA relative to parental", "setting": "[1]", "result": 0.04}
    ]},
    {"binder": "TPP-5339, Hu6C12-24 Fab variant VH: (E1Q, I48M, L70M, T72R, K74T, R84S, D89E, Q97A, T98R) (Fab, V domains shown) VH: QVQLVQSGAEVKKPGASVKVSCKASGYTFTTYTIHWVRQAPGQGLEWMGYINPSSDYTRYNPKFKDRVTMTRDTSTSTAYMELSSLRSEDTAVYYCARGTRDYWGQGTTVTVSS VL: DIQLTQSPSFLSASVGDRVTITCSAASSVSYIYWFQQKPGKAPKLLIYSTSTLPSGVPSRFSGSGSGTEYTLTISSLQPEDFATYYCHQRNSFPFTFGQGTKLEIKR", "values": [
      {"measurement": "binding in ELISA relative to parental Fab (relative to parental Fab)", "setting": "[6]", "result": 0.3}
    ]},
    {"binder": "TPP-5325 (Fab, V domains shown) VH: EVQLVQSGAEVKKPGASVKVSCKASGYTFTTYTIHWVRQAPGQGLEWIGYINPSSDYTSYNPKFKDRVTLTTDKSTSTAYMELRSLRSDDTAVYYCQTGTRDYWGQGTTVTVSS VL: DIQLTQSPSFLSASVGDRVTITCSAASSVSYIYWFQQKPGKAPKLLIYSTSTLPSGVPSRFSGSGSGTEYTLTISSLQPEDFATYYCHQRNSFPFTFGQGTKLEIKR", "values": [
      {"measurement": "binding by ELISA relative to parental", "setting": "[1]", "result": 0.07}
    ]},
    {"binder": "TPP-5353 (Fab, V domains shown) VH: EVQLVQSGAEVKKPGASVKVSCKASGYTFTTYTIHWVRQAPGQGLEWIGYINPSSDYTRYNPKFKDRVTLTTDKSTSTAYMELRSLRSDDTAVYYCQTGTRDYWGQGTTVTVSS VL: DIQLTQSPSFLSASVGDRVTITCSAASSVSYIYWFQQKPGKAPKLLIYSTSTLPSGVPSRFSGSGSGTEYTLTISSLQPEDFATYYCHQLNSFPFTFGQGTKLEIKR", "values": [
      {"measurement": "binding by ELISA relative to parental", "setting": "[1]", "result": 0.04}
    ]},
    {"binder": "TPP-5906 parental scFv (humanized and germlined 6C12) (scFv) scFv: DIQLTQSPSFLSASVGDRVTITCRASSSVSYIYWFQQKPGKAPKLLIYATSTLQSGVPSRFSGSGSGTEYTLTISSLQPEDFATYYCHQRNSFPYTFGQGTKLEIKGGGGSGGGGSGGGGSGGGGSEVQLVQSGAEVKKPGASVKVSCKASGYTFTTYTIHWVRQAPGQGLEWMGYINPSSGYTRYNPKFKGRVTMTRDKSTSTAYMELRSLRSDDTAVYYCQTGTRDYWGQGTTVTVSS", "values": [
      {"measurement": "percentage of input scFv antibody bound", "setting": "[7]", "result": 90, "unit": "%"},
      {"measurement": "percentage of input scFv antibody bound", "setting": "[8]", "result": 0, "unit": "%"},
      {"measurement": "percentage of input scFv antibody bound", "setting": "[9]", "result": 100, "unit": "%"},
      {"measurement": "percentage of input scFv antibody bound", "setting": "[10]", "result": 0, "unit": "%"},
      {"measurement": "percentage of input scFv antibody bound", "setting": "[11]", "result": 16, "unit": "%"},
      {"measurement": "percentage of input scFv antibody bound", "setting": "[12]", "result": 3, "unit": "%"}
    ]}
  ]
}
